Assay results from US9402875B2, “Amidated dopamine neuron stimulating peptide restoration of mitochondrial activity” (University of Kentucky Research Foundation, priority 2006, dated 2016).

How the values were obtained:
[1] = test system: E14 SD rat embryo primary dopaminergic neurons from the ventral mesencephalon; assay type: cell-based
Procedure: DNSP-11 treatment of Mesencephalic Cells: Timed pregnant SD rats (Harlan) were used to obtain the ventral mesencephalon from E14 fetuses. The dissected tissue was collected in cold Neurobasal™ medium and rinsed twice with cold Dulbecco's PBS. The cells were chemically (TrypLE®) and mechanically dissociated to yield a single cell suspension. The solution was centrifuged at 169 g for 6 minutes and the pellet was resuspended in Dulbecco's Modified Eagle Medium (DMEM). Cells were plated in a 25 μL micro-island at a density of 4000 cells/μL on poly-D-lysine coated 24-well plates (Sigma). Following adherence, cells were supplemented with warm NEUROBASAL™ media containing 2 mM glutamine, 1×N2, and 100 units of penicillin/streptomycin. Neurotrophic compounds were added at each media addition, including initial plating and DIV 2. A dose response of the peptides (0.03 ng to 10 ng/mL) was added to a 24-well plate following media supplementation.
The neurotrophic effects of DNSP-11 were studied by comparing its effects to the well-known effects of GDNF on the maintenance of primary mesencephalic cell cultures from E14 SD rat embryos. E14 SD rat embryo primary dopaminergic neurons from the ventral mesencephalon were grown for 5 days in vitro and neurotrophic molecules were added at each media change, including initial plating and day 2. […] These effects were similar to those observed for GDNF in these cells, including an increase in the size of TH+ neurons, which was not observed for DNSP-11 (Table 4).
In Table 1, cell survival and morphological parameters were quantified for control (citrate buffer) and experimental (0.1 ng/ml GDNF or 0.1 ng/ml DNSP-11) conditions. For morphology, five fields per well (minimum of 15 cells/field; 3-4 independent experiments) were photographed at 20× magnification and quantified using a Bioquant Image Analysis System. […] Soma size was not increased by the addition of DNSP-11. A one-way ANOVA was used to test for significance among groups, followed by a Newman-Keuls post hoc analysis. Significance between control and experimental conditions was determined at *p<0.05 and **p<0.01.

[2] = test system: MN9D dopaminergic cells; assay: TUNEL assay, protection against 6-OHDA toxicity; assay type: cell-based; settings: 1 ng/mL for 1 hour before 100 μM 6-OHDA for 15 min; at 24 h
Procedure: (§1) MN9D Cell Cultures: The MN9D cell line has been described by Choi (1991) Brain Res. 552:67-76 and was a gift from Michael Zigmond. Cells were cultured in DMEM supplemented with 10% Fetal Bovine Serum (FBS, Hyclone), 50 U/mL penicillin and streptomycin. For experiments, the cells were plated on 24-well poly-D-lysine in DMEM with 1% (v/v) penicillin-streptomycin. The cells were grown at 37° C. in 5% CO2.
Terminal dUTP Nick-End Labeling (TUNEL) Assay in MN9D Cells: After treatment with DNSP-11, MN9D cells were fixed and labelled to assess degenerative nuclear changes as indicated by the extent of high-molecular weight DNA strand breaks. DNA fragmentation was detected by using steptavidin-horseradish peroxidise conjugate followed by the substrate diaminobenzidine (DAB) generating a colored precipitate. Ratios between apoptotic and total cells were determined (4 random fields/well; 4 wells/ group). Experiments were repeated 3 times.
To evaluate DNSP-11's neuroprotective properties, DNSP-11 was compared to GDNF in its protection against 6-OHDA-induced toxicity in the dopaminergic cell line, MN9D. MN9D dopaminergic cells were incubated for 1 hour with either citrate buffer (control), 1 ng/mL of DNSP-11 or GDNF prior to 100 μM 6-OHDA exposure for 15 min. […]

[3] = test system: MN9D dopaminergic cells; assay: Caspase-3 activity assay, protection against 6-OHDA toxicity; assay type: cell-based; settings: 1 ng/mL for 1 hour before 100 μM 6-OHDA for 15 min; at 3 h
Procedure: as §1
Caspase-3 Activity Assay in MN9D Cells: MN9D cells were plated to 100,000 cells/well. Cell cultures were exposed to DNSP-11 (1 ng/mL) or buffer for 1 hour prior to 15 min 100 μM 6-OHDA exposure. Caspase-3 activity was monitored after 3 hours by fluorescence (excitation/emission 496/520 nm) using the Enz Chek Caspase-3 kit. Protein levels of lysed cells were measured by BCA assay (BioRad) and normalized for every experiment. Data expressed as % control and repeated a minimum of 3 times.
To evaluate DNSP-11's neuroprotective properties, DNSP-11 was compared to GDNF in its protection against 6-OHDA-induced toxicity in the dopaminergic cell line, MN9D. MN9D dopaminergic cells were incubated for 1 hour with either citrate buffer (control), 1 ng/mL of DNSP-11 or GDNF prior to 100 μM 6-OHDA exposure for 15 min. Data are +SD, one-way ANOVA with Tukey's post hoc analysis, *p<0.05, **p<0.01, ***p<0.001 vs. control; #p<0.05, ##p<0.01, ###p<0.001 vs. 6-OHDA.

[4] = biological target: GAPDH (Homo sapiens, UniProt P04406); assay: Gel filtration analysis of interaction between GAPDH and GDNF; assay type: binding; settings: equimolar solution, pre-equilibrated 1 h, Sephacryl S-200
Procedure: A gel filtration study was performed using a 120 mL Sephacryl S-200 column at a constant 1 mL/min flow rate. Individual 300 μM solutions of GAPDH (˜150 kDa; FIG. 14, dotted line) or GDNF (˜30 kDa; FIG. 14, dashed line) eluted at expected retention times for their sizes of 50 min (FIG. 14, star) and 64 min (FIG. 14, pound sign), respectively. When a pre-equilibrated (1 h), equimolar solution of GAPDH and GDNF was analyzed by gel filtration chromatography, two equally intense peaks were observed (FIG. 14, solid line) with retention times identical to the individual solutions.

[5] = test system: Erk1/2; assay: ERK1/2 activation by western blot; assay type: cell-based; settings: DNSP-11 0.1 uM or 1 uM or GDNF 50 ng/ml for 20 minutes
Procedure: MN9D and B65 cell were cultured in DMEM; 11995 (containing pyridoxol HCl; Sigma, St. Louis, Mo.) supplemented with 10% fetal bovine serum (HyClone, Logan, Utah), 50 U/mL penicillin and streptomycin with DNSP-11 (0.1 uM or 1 uM) or GDNF (50 ng/ml) for 20 minutes. The cells were then solubilized in Triton-X-100/glycerol lysis buffer and subjected to electrophoresis and western blotting as partially described previously (Jiang et al., Mol Biol Cell 14:859-70 (2003)). To detect phosphorylated Erk (#4377 Cell Signaling) and ERK (#4696 Cell Signaling) by immunoblotting, the cells were directly lysed in the sample loading buffer. Secondary IRDye 700X and IRDye800 conjugated, fluorescent antibodies (Rockland Inc.) were used to detect signal with Odyssey v3.0 scanning software. Several blots were analyzed to determine the linear range of the fluorescence signals, and quantifications were performed using densitometry analysis.

[6] = test system: young and aged rats; settings: Hebert et al. 1996, 1997, cited from earlier work

GAPDH, sequence (P04406 2-335 limits assumed, species assumed): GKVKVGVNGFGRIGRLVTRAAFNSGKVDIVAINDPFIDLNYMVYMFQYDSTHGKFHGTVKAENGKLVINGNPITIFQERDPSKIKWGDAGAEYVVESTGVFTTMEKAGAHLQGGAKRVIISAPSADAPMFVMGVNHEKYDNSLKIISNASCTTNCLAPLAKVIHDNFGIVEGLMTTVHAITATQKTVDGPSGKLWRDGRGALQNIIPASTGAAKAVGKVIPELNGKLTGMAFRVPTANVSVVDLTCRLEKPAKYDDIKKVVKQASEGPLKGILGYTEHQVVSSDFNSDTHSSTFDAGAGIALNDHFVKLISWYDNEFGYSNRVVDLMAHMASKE

interaction with GAPDH in solution [4]: does not interact
B1: GDNF: mature glial cell line-derived neurotrophic factor, homodimer of 32-42 kDa, comparator (protein, listed as Homo sapiens)
chain: SPDKQMAVLPRRERNRQAAAANPENSRGKGRRGQRGKNRGCVLTAIHLNVTDLGLGYETKEELIFRYCSGSCDAAETTYDKILKNLSRNRRLVSDKVGQACCRPIAFDDDLSFLDDNLVYHILRKHSAKRCGCI
modifications: homodimer
notes: mature glial cell line-derived neurotrophic factor, homodimer of 32-42 kDa, comparator
Cell survival ([1]; 0.1 ng/ml, 5 days in vitro, control 100): *158 ± 12 | Average branches per neuron ([1]; 0.1 ng/ml, controls 3.8 ± 0.2 (GDNF), 3.1 ± 0.2 (DNSP-11)): **4.7 ± 0.2 | Soma size (um^2) ([1]; 0.1 ng/ml, controls 171 ± 4 (GDNF), 168 ± 3 (DNSP-11)): 177 ± 4 um^2 | Combined neurite length (um) ([1]; 0.1 ng/ml, controls 242 ± 12 (GDNF), 222 ± 11 (DNSP-11)): **310 ± 16 um | TH+ neuron counts ([1]; 0.03, 0.1, 1.0 and 10 ng/ml): significantly increase | percent of TUNEL positive cells [2]: significant reduction | caspase-3 activity [3]: significant reduction | phosphorylation of Erk1/2 (ratio of phosphorylated to non-phosphorylated) ([5]; B65 cells): elevated levels of activated Erk | phosphorylation of Erk1/2 (ratio of phosphorylated to non-phosphorylated) ([5]; MN9D cells): elevated levels of activated Erk | augmentation of evoked release of dopamine [6]: over 100% | increase of basal levels of DOPAC ([6]; young and aged rats): 20-25%
